B1: library; numbered along this chain (parent)
chain: MRKPRAAVGSGHRKQAASQEGRQKHAKNNSQAKPSACDGLARQPEEVVLQASVSSYHLFRDVAEVTAFRGSLLSWYDQEKRDLPWRRRAEDEMDLDRRAYAVWVSEVMLQQTQVATVINYYTGWMQKWPTLQDLASASLEEVNQLWAGLGYYSRGRRLQEGARKVVEELGGHMPRTAETLQQLLPGVGRYTAGAIASIAFGQATGVVDGNVARVLCRVRAIGADPSSTLVSQQLWGLAQQLVDPARPGDFNQAAMELGATVCTPQRPLCSQCPVESLCRARQRVEQEQLLASGSLSGSPDVEECAPNTGQCHLCLPPSEPWDQTLGVVNFPRKASRKPPREESSATCVLEQPGALGAQILLVQRPNSGLLAGLWEFPSVTWEPSEQLQRKALLQELQRWAGPLPATHLRHLGEVVHTFSHIKLTYQVYGLALEGQTPVTTVPPGARWLTQEEFHTAAVSTAMKKVFRVYQGQQPGTCMGSKRSQVSSPCSRKKPRMGQQVLDNFFRSHISTDAHSLNSAAQ

Variants of: B1
Experiment: 8OG:A repair function score (normalized; synonymous = 0, nonsense = -1) (normalized log-likelihood score); higher = more repair activity (WT-like)
Settings: with 8OG:A DNA repair reporter (GFP) in HEK-293 MUTYH KO cells
How it was run: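 GFP+ (repair) and GFP− bins of viable mCherry+ cells were collected at 72 h from MUTYH knockout HEK-293 cells bearing lentiviral MUTYH cDNA NNN codon-scan libraries in 10 pg/ml doxycycline, co-transfected with an 8OG:A GFP repair reporter and mCherry. Tile amplicons were sequenced, and per-tile Rosace fitness scores were normalized to a repair function score anchored on synonymous and nonsense distributions. Synonymous medians were set to 0 and nonsense to -1, with variants under 300 counts per million at the start removed.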
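Note: cells sorted at 72 h after reporter transfection.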

Compared with MRKPRAAVGSGHRKQAASQEGRQKHAKNNSQAKPSACDGLARQPEEVVLQASVSSYHLFRDVAEVTAFRGSLLSWYDQEKRDLPWRRRAEDEMDLDRRAYAVWVSEVMLQQTQVATVINYYTGWMQKWPTLQDLASASLEEVNQLWAGLGYYSRGRRLQEGARKVVEELGGHMPRTAETLQQLLPGVGRYTAGAIASIAFGQATGVVDGNVARVLCRVRAIGADPSSTLVSQQLWGLAQQLVDPARPGDFNQAAMELGATVCTPQRPLCSQCPVESLCRARQRVEQEQLLASGSLSGSPDVEECAPNTGQCHLCLPPSEPWDQTLGVVNFPRKASRKPPREESSATCVLEQPGALGAQILLVQRPNSGLLAGLWEFPSVTWEPSEQLQRKALLQELQRWAGPLPATHLRHLGEVVHTFSHIKLTYQVYGLALEGQTPVTTVPPGARWLTQEEFHTAAVSTAMKKVFRVYQGQQPGTCMGSKRSQVSSPCSRKKPRMYQQVLDNFFRSHISTDAHSLNSAAQ [G497Y], MRKPRAAVGSGHRKQAASQEGRQKHAKNNSQAKPSACDGLARQPEEVVLQASVSSYHLFRDVAEVTAFRGSLLSWYDQEKRDLPWRRRAEDEMDLDRRAYAVWVSEVMLQQTQVATVINYYTGWMQKWPTLQDLASASLEEVNQLWAGLGYYSRGRRLQEGARKVVEELGGHMPRTAETLQQLLPGVGRYTAGAIASIAFGQATGVVDGNVARVLCRVRAIGADPSSTLVSQQLWGLAQQLVDPARPGDFNQAAMELGATVCTPQRPLCSQCPVESLCRARQRVEQEQLLASGSLSGSPDVEECAPNTGQCHLCLPPSEPWDQTLGVVNFPRKASRKPPREESSATCVLEQPGALGAQILLVQRPNSGLLAGLWEFPSVTWEPSEQLQRKALLQELQRWAGPLPATHLRHLGEVVHTFSHIKLTYQVYGLALEGQTPVTTVPPGARWLTQEEFHTAAVSTAMKKVFRVYQGQQPGTCMGSKRSQVSSPCSRKKPRMVQQVLDNFFRSHISTDAHSLNSAAQ [G497V] is higher in “8OG:A repair function score” value: -0.0861 for the first, -0.00253 for the second.

Going from MRKPRAAVGSGHRKQAASQEGRQKHAKNNSQAKPSACDGLARQPEEVVLQASVSSYHLFRDVAEVTAFRGSLLSWYDQEKRDLPWRRRAEDEMDLDRRAYAVWVSEVMLQQTQVATVINYYTGWMQKWPTLQDLASASLEEVNQLWAGLGYYSRGRRLQEGARKVVEELGGHMPRTAETLQQLLPGVGRYTAGAIASIAFGQATGVVDGNVARVLCRVRAIGADPSSTLVSQQLWGLAQQLVDPARPGDFNQAAMELGATVCTPQRPLCSQCPVESLCRARQRVEQEQLLASGSLSGSPDVEECAPNTGQCHLCLPPSEPWDQTLGVVNFPRKASRKPPREESSATCVLEQPGALGAQILLVQRPNSGLLAGLWEFPSVTWEPSEQLQRKALLQELQRWAGPLPATHLRHLGEVVHTFSHIKLTYQVYGLALEGQTPVTTVPPGARWLTQEEFHTAAVSTAMKKVFRVYQGQQPGTCMGSKRSQVSSPCSRKKPRMWQQVLDNFFRSHISTDAHSLNSAAQ [G497W] to MRKPRAAVGSGHRKQAASQEGRQKHAKNNSQAKPSACDGLARQPEEVVLQASVSSYHLFRDVAEVTAFRGSLLSWYDQEKRDLPWRRRAEDEMDLDRRAYAVWVSEVMLQQTQVATVINYYTGWMQKWPTLQDLASASLEEVNQLWAGLGYYSRGRRLQEGARKVVEELGGHMPRTAETLQQLLPGVGRYTAGAIASIAFGQATGVVDGNVARVLCRVRAIGADPSSTLVSQQLWGLAQQLVDPARPGDFNQAAMELGATVCTPQRPLCSQCPVESLCRARQRVEQEQLLASGSLSGSPDVEECAPNTGQCHLCLPPSEPWDQTLGVVNFPRKASRKPPREESSATCVLEQPGALGAQILLVQRPNSGLLAGLWEFPSVTWEPSEQLQRKALLQELQRWAGPLPATHLRHLGEVVHTFSHIKLTYQVYGLALEGQTPVTTVPPGARWLTQEEFHTAAVSTAMKKVFRVYQGQQPGTCMGSKRSQVSSPCSRKKPRMGGQVLDNFFRSHISTDAHSLNSAAQ [Q498G], the “8OG:A repair function score” value rises from 0.0164 to 0.0187.

Going from MRKPRAAVGSGHRKQAASQEGRQKHAKNNSQAKPSACDGLARQPEEVVLQASVSSYHLFRDVAEVTAFRGSLLSWYDQEKRDLPWRRRAEDEMDLDRRAYAVWVSEVMLQQTQVATVINYYTGWMQKWPTLQDLASASLEEVNQLWAGLGYYSRGRRLQEGARKVVEELGGHMPRTAETLQQLLPGVGRYTAGAIASIAFGQATGVVDGNVARVLCRVRAIGADPSSTLVSQQLWGLAQQLVDPARPGDFNQAAMELGATVCTPQRPLCSQCPVESLCRARQRVEQEQLLASGSLSGSPDVEECAPNTGQCHLCLPPSEPWDQTLGVVNFPRKASRKPPREESSATCVLEQPGALGAQILLVQRPNSGLLAGLWEFPSVTWEPSEQLQRKALLQELQRWAGPLPATHLRHLGEVVHTFSHIKLTYQVYGLALEGQTPVTTVPPGARWLTQEEFHTAAVSTAMKKVFRVYQGQQPGTCMGSKRSQVSSPCSRKKPRMGIQVLDNFFRSHISTDAHSLNSAAQ [Q498I] to MRKPRAAVGSGHRKQAASQEGRQKHAKNNSQAKPSACDGLARQPEEVVLQASVSSYHLFRDVAEVTAFRGSLLSWYDQEKRDLPWRRRAEDEMDLDRRAYAVWVSEVMLQQTQVATVINYYTGWMQKWPTLQDLASASLEEVNQLWAGLGYYSRGRRLQEGARKVVEELGGHMPRTAETLQQLLPGVGRYTAGAIASIAFGQATGVVDGNVARVLCRVRAIGADPSSTLVSQQLWGLAQQLVDPARPGDFNQAAMELGATVCTPQRPLCSQCPVESLCRARQRVEQEQLLASGSLSGSPDVEECAPNTGQCHLCLPPSEPWDQTLGVVNFPRKASRKPPREESSATCVLEQPGALGAQILLVQRPNSGLLAGLWEFPSVTWEPSEQLQRKALLQELQRWAGPLPATHLRHLGEVVHTFSHIKLTYQVYGLALEGQTPVTTVPPGARWLTQEEFHTAAVSTAMKKVFRVYQGQQPGTCMGSKRSQVSSPCSRKKPRMGAQVLDNFFRSHISTDAHSLNSAAQ [Q498A], the “8OG:A repair function score” value falls from 0.0195 to 0.011.

First: MRKPRAAVGSGHRKQAASQEGRQKHAKNNSQAKPSACDGLARQPEEVVLQASVSSYHLFRDVAEVTAFRGSLLSWYDQEKRDLPWRRRAEDEMDLDRRAYAVWVSEVMLQQTQVATVINYYTGWMQKWPTLQDLASASLEEVNQLWAGLGYYSRGRRLQEGARKVVEELGGHMPRTAETLQQLLPGVGRYTAGAIASIAFGQATGVVDGNVARVLCRVRAIGADPSSTLVSQQLWGLAQQLVDPARPGDFNQAAMELGATVCTPQRPLCSQCPVESLCRARQRVEQEQLLASGSLSGSPDVEECAPNTGQCHLCLPPSEPWDQTLGVVNFPRKASRKPPREESSATCVLEQPGALGAQILLVQRPNSGLLAGLWEFPSVTWEPSEQLQRKALLQELQRWAGPLPATHLRHLGEVVHTFSHIKLTYQVYGLALEGQTPVTTVPPGARWLTQEEFHTAAVSTAMKKVFRVYQGQQPGTCMGSKRSQVSSPCSRKKPRMGDQVLDNFFRSHISTDAHSLNSAAQ [Q498D]
Second: MRKPRAAVGSGHRKQAASQEGRQKHAKNNSQAKPSACDGLARQPEEVVLQASVSSYHLFRDVAEVTAFRGSLLSWYDQEKRDLPWRRRAEDEMDLDRRAYAVWVSEVMLQQTQVATVINYYTGWMQKWPTLQDLASASLEEVNQLWAGLGYYSRGRRLQEGARKVVEELGGHMPRTAETLQQLLPGVGRYTAGAIASIAFGQATGVVDGNVARVLCRVRAIGADPSSTLVSQQLWGLAQQLVDPARPGDFNQAAMELGATVCTPQRPLCSQCPVESLCRARQRVEQEQLLASGSLSGSPDVEECAPNTGQCHLCLPPSEPWDQTLGVVNFPRKASRKPPREESSATCVLEQPGALGAQILLVQRPNSGLLAGLWEFPSVTWEPSEQLQRKALLQELQRWAGPLPATHLRHLGEVVHTFSHIKLTYQVYGLALEGQTPVTTVPPGARWLTQEEFHTAAVSTAMKKVFRVYQGQQPGTCMGSKRSQVSSPCSRKKPRMGCQVLDNFFRSHISTDAHSLNSAAQ [Q498C]
The “8OG:A repair function score” value of the first is higher: 0.00936 for the first, -0.0114 for the second.

Compared with MRKPRAAVGSGHRKQAASQEGRQKHAKNNSQAKPSACDGLARQPEEVVLQASVSSYHLFRDVAEVTAFRGSLLSWYDQEKRDLPWRRRAEDEMDLDRRAYAVWVSEVMLQQTQVATVINYYTGWMQKWPTLQDLASASLEEVNQLWAGLGYYSRGRRLQEGARKVVEELGGHMPRTAETLQQLLPGVGRYTAGAIASIAFGQATGVVDGNVARVLCRVRAIGADPSSTLVSQQLWGLAQQLVDPARPGDFNQAAMELGATVCTPQRPLCSQCPVESLCRARQRVEQEQLLASGSLSGSPDVEECAPNTGQCHLCLPPSEPWDQTLGVVNFPRKASRKPPREESSATCVLEQPGALGAQILLVQRPNSGLLAGLWEFPSVTWEPSEQLQRKALLQELQRWAGPLPATHLRHLGEVVHTFSHIKLTYQVYGLALEGQTPVTTVPPGARWLTQEEFHTAAVSTAMKKVFRVYQGQQPGTCMGSKRSQVSSPCSRKKPRMGFQVLDNFFRSHISTDAHSLNSAAQ [Q498F], MRKPRAAVGSGHRKQAASQEGRQKHAKNNSQAKPSACDGLARQPEEVVLQASVSSYHLFRDVAEVTAFRGSLLSWYDQEKRDLPWRRRAEDEMDLDRRAYAVWVSEVMLQQTQVATVINYYTGWMQKWPTLQDLASASLEEVNQLWAGLGYYSRGRRLQEGARKVVEELGGHMPRTAETLQQLLPGVGRYTAGAIASIAFGQATGVVDGNVARVLCRVRAIGADPSSTLVSQQLWGLAQQLVDPARPGDFNQAAMELGATVCTPQRPLCSQCPVESLCRARQRVEQEQLLASGSLSGSPDVEECAPNTGQCHLCLPPSEPWDQTLGVVNFPRKASRKPPREESSATCVLEQPGALGAQILLVQRPNSGLLAGLWEFPSVTWEPSEQLQRKALLQELQRWAGPLPATHLRHLGEVVHTFSHIKLTYQVYGLALEGQTPVTTVPPGARWLTQEEFHTAAVSTAMKKVFRVYQGQQPGTCMGSKRSQVSSPCSRKKPRMGEQVLDNFFRSHISTDAHSLNSAAQ [Q498E] is higher in “8OG:A repair function score” value: -0.0629 for the first, 0.0145 for the second.

First: MRKPRAAVGSGHRKQAASQEGRQKHAKNNSQAKPSACDGLARQPEEVVLQASVSSYHLFRDVAEVTAFRGSLLSWYDQEKRDLPWRRRAEDEMDLDRRAYAVWVSEVMLQQTQVATVINYYTGWMQKWPTLQDLASASLEEVNQLWAGLGYYSRGRRLQEGARKVVEELGGHMPRTAETLQQLLPGVGRYTAGAIASIAFGQATGVVDGNVARVLCRVRAIGADPSSTLVSQQLWGLAQQLVDPARPGDFNQAAMELGATVCTPQRPLCSQCPVESLCRARQRVEQEQLLASGSLSGSPDVEECAPNTGQCHLCLPPSEPWDQTLGVVNFPRKASRKPPREESSATCVLEQPGALGAQILLVQRPNSGLLAGLWEFPSVTWEPSEQLQRKALLQELQRWAGPLPATHLRHLGEVVHTFSHIKLTYQVYGLALEGQTPVTTVPPGARWLTQEEFHTAAVSTAMKKVFRVYQGQQPGTCMGSKRSQVSSPCSRKKPRMGHQVLDNFFRSHISTDAHSLNSAAQ [Q498H]
Second: MRKPRAAVGSGHRKQAASQEGRQKHAKNNSQAKPSACDGLARQPEEVVLQASVSSYHLFRDVAEVTAFRGSLLSWYDQEKRDLPWRRRAEDEMDLDRRAYAVWVSEVMLQQTQVATVINYYTGWMQKWPTLQDLASASLEEVNQLWAGLGYYSRGRRLQEGARKVVEELGGHMPRTAETLQQLLPGVGRYTAGAIASIAFGQATGVVDGNVARVLCRVRAIGADPSSTLVSQQLWGLAQQLVDPARPGDFNQAAMELGATVCTPQRPLCSQCPVESLCRARQRVEQEQLLASGSLSGSPDVEECAPNTGQCHLCLPPSEPWDQTLGVVNFPRKASRKPPREESSATCVLEQPGALGAQILLVQRPNSGLLAGLWEFPSVTWEPSEQLQRKALLQELQRWAGPLPATHLRHLGEVVHTFSHIKLTYQVYGLALEGQTPVTTVPPGARWLTQEEFHTAAVSTAMKKVFRVYQGQQPGTCMGSKRSQVSSPCSRKKPRMGKQVLDNFFRSHISTDAHSLNSAAQ [Q498K]
The “8OG:A repair function score” value of the first is lower: -0.0117 for the first, -0.00149 for the second.

— the supplement of paper PMC11908140
